Here are results for 12 sequences from the DeepSol protein solubility set.

The series can be described thus: soluble on expression in E. coli; label from the status in PepcDB or PDB records.
For “MSLKQNGGLTDLTGSVAFGTTPLSPGVTDRLYYPSRRNKGAALSDDKACFLSVPRSGGKGPPPEYDGAGRVTLFSGYLFDRERLARKLGGDHSWPDVRLAAAWIAHHGLDRLADLAGDYALSHWDPGARRLFLAVAPMGSRLLYWHRVGTICHFATTVAGLHRIPDIPRVVDPLHLTARFSAMVGDPTRTVYKDIHQIVPGDMLVADVNANRYVPLWRPDAERRLRLANEREYLEAADELLERAVARRLQAAHAPAFLSSGGLDSAAMLTTASRLAGDRKVRSYTIVPSPGLCVTADRGWYGDERAKVADLAASHTNLDIRLCHSLVPSPLETNPAHLFMATGLPCMIANQIGWLDIAFQQMQQAGHDAVLSGQSGNFTFSYDGNLCFADLIREGRPLTALRLLAQVARYKQQGFAPMVRHRVVVPLLPDAFYYGQRRWRGRPHPLADRTLTRPGWREKVGLDDYLADHGEQPFQERDSRSRQQIIHFMLKRRAMTLPNAHALETVRGTHYRDVYADRDLLEFILAIPRDQFILDGRNRSLARRLLAMRGVPDSIVNERAIGQEGHHHHHH”, the “soluble on expression in E. coli” value is given as “not soluble”. Under “MSLKRFIPAWYSRNRWWESTSRPFYLKKQYTDFDDMISLMTMHSSNNVDYQLIVLSFSPYLRTFLHRYDLYESHYWSVFDEIQGIGHQTPQAIDYRDLSWPEGTEFIFTPFQIQAITGDNTFSKIHFSQEGYLMWVEDYKYSTIQRRFVFDDRGFISAVRTYTPDGDNNKKHYFSKDGEEIFVEDLNVNTVTINKNFQSKFKKVTYSSMAELIEEKFQSYVERELNEDDSVIVASDERHNSMMARTIDAPSLCFSIFTERNKVVTQDLYDSISRAYYCLVDTQANQNMIEHYAGLNMNNFNLLRVTPFDAQSLPNQSSQLYDTYIGLWIDGLDEIEIREIVNSLFQYIQHKDGYKLKILTKSRDNLTENLIDEVAHLNDLYHQEKKEISDVIEDVIQNKKETIIDIETVPFEEDLVSVISKLRVVVDLSLEPKLFLQICCIGAGIPQINKKRTDYVKHMHNGYIIDDISQTVESLDYFLAHLKNWNYSYAYSMRLTDDFSSINIIHQINQLFKGDVSSGTEGHHHHHH” stands “soluble”; under “MSLKRTEISSLGEFGLIRHLTDCVRLKNPGTLKGIGDDAAVISFDEGMKALVTTDMLLEGIHFDLTYTPLKHLGYKSAIVNFSDIYAMNGTPRQLTVSIGVSARFSVEDIEQIYQGILTACDAYGVDLVGGDTSASLTGLCLSLTCIGEAREEEIVYRSGAKPTDLICVSGDLGAAYMGLQLLEREKAVYQGEKDFAPDFAGHEYILERQLKPEARKDIVEELRSAGIKPTAMMDISDGLSSELLHIAHAGKVGVRIYDDKLPIDYQTAAMAEEFNMNLSTAALNGGEDYELLFTVPLTRLDDIQRIEGIHLIGHITEEADGHLLVARDGTEITLVAQGWNAAKALNGEGHHHHHH”, “soluble”. Turning to “MSLKSAKDVQTITKITIDFGGEEIFLDFDEVTKHYLNQPLSAKTVFALTKELTQVLYNAGYVTSAIGLKSSKIKNGEVEFVVLWGKVNDILVEEQQASLFKDKAMLFVLPNLKGKVLRIYDVDQLIEILNTGNKTAKVNVIAANEKSMSNLSIERHRTSYPQVSLSLNNSGEGSNAEGRNQATLSISWSDLLGTNDRWSFSTGYRIYKDRQANRQQNYSLSYTQPFSFSTLDIKLSYSGYKKQLRGIHTHGSSGETKQASFKLSHTLLRNKDMILSLYGELEFKRRLSYFGDIRIGKYHNNKLNIGLSYVTNLGHGKLYSDLSYSNGLRWFNANHSAYNSHRDKTLRLVSGSINWQRPFVFFNRGMSYQFRLGAQYGFDSLYGENQFSIGDEYTVRGFKGGAGSGDRGFYISQTVTIPFYPQKSYLSYINPFLGIDIGKVHAKRPHHVVDTFAGFAFGVKAQIKSLALSLTYAKPINGVGTFEESNKKSVFYFTGSVSFEGHHHHHH”, the “soluble on expression in E. coli” value is given as “not soluble”. Under “MSLKTIHITHPHHLIKEEQAKSVMALGYFDGVHLGHQKVIGTAKQIAEEKGLTLAVMTFHPHPSHVLGRDKEPKDLITPLEDKINQIEQLGTEVLYVVKFNEVFASLSPKQFIDQYIIGLNVQHAVAGFDFTYGKYGKGTMKTMPDDLDGKAGCTMVEKLTEQDKKISSSYIRTALQNGDVELANVLLGQPYFIKGIVIHGDKRGRTIGFPTANVGLNNSYIVPPTGVYAVKAEVNGEVYNGVCNIGYKPTFYEKRPEQPSIEVNLFDFNQEVYGAAIKIEWYKRIRSERKFNGIKELTEQIEKDKQEAIRYFSNLRKEGGSHHHHHH” stands “soluble”; under “MSLKTLENHNRIKVTVNGREIEVYDNLTILQALLQEDIHIPHLCYDIRLERSNGNCGLCVVTLISPDGERDVKACQTPIKEGMVICTNTPKLENYRKIRLEQLLSDHNADCVAPCVMTCPANIDIQSYLRHVGNGDFEAAIRVIKERNPFPIVCGRVCPHTCESQCRRNLVDAPVAINYVKRFAADWDMARPEPWTPEKKPPTGKKIAIVGAGPSGLSAAYYSAIKGHDVTVFERQPHPGGMMRYGIPEYRLPKAILDKEIEMIKKLGVKIMTEKALGIHIRLEDLSKDFDAVYLAIGSWQATPMHIEGEKLDGVWAGINYLEQVAKNVDIPLGDNVVVIGGGNTAIDCARTALRKGAKSVKLVYRCTREEMPAAPYEVEEAIHEGVEMIFLMAPTKIIVKDGKKKLVCIRMQLGEPDRSGRRRPVPIEGSEVEIDADTIIGAIGQSTNTQFLYNDLPVKLNKWGDIEVNGKTLQTSEYNIFAGGDCVTGPATVIEGHHHHHH”, “soluble”. Under “MSLKTWFITGTSSGFGKELATIVARQSDTQLIAAARHTDDLAYLDVFDATRIEKVSIDVTNESQIKTGVAQAIQRFGTIDVLVNNAGLGYFSTIEESDMAKVRYMFEVNVMGLANVTRTVLPTMRAHHAGIIINLSSALALTTLPTMGFYSATKYAVEGYSDTLRQEVKDLGIQIMTVEPSGARTQWSGRSSQKMVPTIADYAAFSDAITTVSDSVTQAPGNPHRIAQVMFDQANLAEVPAHLPLGEFAYQGGLANLQSIVSEIKSREDLSLSTDEGHHHHHH” stands “not soluble”; under “MSLKVLAITGYKPFELGIFKQDDKALYYIKKAIKNRLIAFLDEGLEWILISGQLGVELWAAEAAYDLQEEYPDLKVAVITPFYEQEKNWKEPNKEQYEAVLAQADYEASLTHRPYESPLQFKQKNQFFIDKSDGLLLLYDPEKEGSPKYMLGTAEKRREQDGYPIYFITMDDLRVTVEEDSYEGHHHHHH”, “soluble”. Consider “MSLKYDWILFDADETLFHFDAFKGMQLMFARKGVEFTEQDFHQYQEVNKPLWVDYQNGDITAAQLKHTRFAGWAEKLNTTTDELNSAFLQAMADICTLLPGAMELMQALQGKARLGIITNGFTELQDVRLAKTGMTDFFDQIVISEEVGIAKPDAGIFAHALERMGNPTKSRVLMVGDNPHSDILGGLNFGIETCWLNVHQHPKPDGITPHYEVTSLHELREILLAEGHHHHHH”, for which the “soluble on expression in E. coli” value is “soluble”.

As for “MSLKYVDEFREPEKAEALCREITKLSHQLEKPIKIMEVCGGHTHSIFKYGIEEILPQTIELIHGPGCPVCVMPKGRLDDAIAISQNHNVIFATFGDAMRVPGSKTSLLQARAQGADIRMVYSPLDSLQIAKDHPDREVVFFALGFETTAPSTGFTIVQAAAEEIHNFSMFSNHVLVIPALKALLDNPDLQLDGFVGPGHVSMVIGSDPYQFISQQYNKPIVVSGFEPLDILQSIWMLLQQIVENRCEVENQYNRIVQKSGNTVALQAINKVFAVRDSFDWRGLGDIPYSGLKIKPEYAQFDAELKFTIPNLKVADHKACKCGEILKGVLKPWECKVFGTACTPETPIGTCMVSSEGACAAYYKYGRLSTIAKRTITQKPKITQEPLPACGFSLDEGHHHHHH”, the “soluble on expression in E. coli” value was “not soluble”. With “MSLLACCAIYSPVRCAFPYTETERRFTCKRRIFRIILTLCGRENMKIRALLVAMSVATVLTGCQNMDSNGLLSSGAEAFQAYSLSDAQVKTLSDQACQEMDSKATIAPANSEYAKRLTTIANALGNNINGQPVNYKVYMAKDVNAFAMANGCIRVYSGLMDMMTDNEVEAVIGHEMGHVALGHVKKGMQVALGTNAVRVAAASAGGIVGSLSQSQLGNLGEKLVNSQFSQRQEAEADDYSYDLLRQRGISPAGLATSFEKLAKLEEGRQSSMFDDHPASAERAQHIRDRMSADGIKEGGSHHHHHH”, the “soluble on expression in E. coli” value is given as “soluble”. Under “MSLLGTGYLPDGTHMPGANPNLNIAAFLKENHIDLHTTVYPGGGLDPYTSVEFLNIVSKHCKTVFSNANEVLNTIPNSIYVPGIINTEFYHYNQKVSTKPIQMIFAAHNAERKGFPLLAQAFNKLDDQFHLHIVGNWENSLHLLTNNNYTFWGMLDLEKLKQLYEQSHVFISCSTKDKFAIDGFPTTAAADAMATGCILVSTNHRNDNRILKPGEDYLKIEADSNSILSNLFWIKMNFEKALEIGKSGAIKMDKYFNYKTNVNFKLSHIF” stands “not soluble”.
